Experimental findings from patent US20240132485A1, “HETEROCYCLIC CULLIN RING UBIQUITIN LIGASE COMPOUNDS AND USES THEREOF” (CEMM - FORSCHUNGSZENTRUM FÜR MOLEKULARE MEDIZIN GMBH, priority 2020, published 2024) are described below.

Usually EC50 stands for the midpoint of the concentration-response curve. A low value points to higher potency in that assay.

Assay [1] deals with Nanoluc_DDB1 (N-terminal Nanoluc luciferase, G4S linker, DDB1 (FL)) (UniProt Q16531). The assay is described as follows: NanoBRET in HEK293T cells, 10 µM compound Example 3-27; class B = 3-4 fold increase. A general note: Bioluminescence resonance energy transfer reports proximity on the nanometre scale.
Nanoluc_DDB1 (N-terminal Nanoluc luciferase, G4S linker, DDB1 (FL)), sequence (Q16531 other isoform, or with tags, fused parts or gaps): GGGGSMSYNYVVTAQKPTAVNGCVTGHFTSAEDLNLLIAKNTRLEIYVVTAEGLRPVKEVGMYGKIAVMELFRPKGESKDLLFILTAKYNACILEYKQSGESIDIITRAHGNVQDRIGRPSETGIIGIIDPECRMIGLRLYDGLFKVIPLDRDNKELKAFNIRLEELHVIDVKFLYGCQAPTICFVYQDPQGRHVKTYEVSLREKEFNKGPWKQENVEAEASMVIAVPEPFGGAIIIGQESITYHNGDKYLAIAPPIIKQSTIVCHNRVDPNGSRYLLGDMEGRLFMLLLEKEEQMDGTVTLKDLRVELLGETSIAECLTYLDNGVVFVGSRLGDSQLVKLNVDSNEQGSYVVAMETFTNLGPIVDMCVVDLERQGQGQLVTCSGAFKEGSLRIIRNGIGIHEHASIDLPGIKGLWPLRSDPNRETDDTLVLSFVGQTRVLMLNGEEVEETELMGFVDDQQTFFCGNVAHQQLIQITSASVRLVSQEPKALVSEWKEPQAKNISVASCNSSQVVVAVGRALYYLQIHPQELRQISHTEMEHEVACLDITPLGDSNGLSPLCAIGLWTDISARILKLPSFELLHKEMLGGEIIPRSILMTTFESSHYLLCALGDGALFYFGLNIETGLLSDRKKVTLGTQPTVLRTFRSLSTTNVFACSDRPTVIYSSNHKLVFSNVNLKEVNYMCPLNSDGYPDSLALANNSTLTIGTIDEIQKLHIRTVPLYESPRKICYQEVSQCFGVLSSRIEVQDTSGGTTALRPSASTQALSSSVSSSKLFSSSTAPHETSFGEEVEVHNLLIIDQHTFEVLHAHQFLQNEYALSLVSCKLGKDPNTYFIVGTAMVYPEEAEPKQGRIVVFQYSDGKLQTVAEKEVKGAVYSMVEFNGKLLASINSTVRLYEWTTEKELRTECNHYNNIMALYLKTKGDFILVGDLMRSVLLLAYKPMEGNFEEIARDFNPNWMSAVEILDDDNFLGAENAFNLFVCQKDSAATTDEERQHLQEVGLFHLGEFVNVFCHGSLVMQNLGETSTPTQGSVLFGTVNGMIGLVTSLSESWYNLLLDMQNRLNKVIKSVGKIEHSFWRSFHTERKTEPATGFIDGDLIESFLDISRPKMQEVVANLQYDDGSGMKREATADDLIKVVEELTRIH
Assay [2] shares this target. The assay is described as follows: NanoBRET in HEK293T cells, 10 µM compound Example 3-46; class B = 3-4 fold increase.
For assay [3] the target is unchanged. The assay can be described thus: NanoBRET in HEK293T cells, 10-point titration of compound Example 3-63; class E = >10 µM.
Assay [4] has the same target. The assay can be described thus: NanoBRET in HEK293T cells, 10 µM compound Example 3-61; class A = greater than 4-fold increase.
Assay [5] has the same target. The assay is described as follows: NanoBRET in HEK293T cells, 10 µM compound Example 3-62; class A = greater than 4-fold increase.

In the case of “HaloTag_CDK12 (N-terminal HaloTag, G4S linker, CDK12 (713-1052)) (from UniProt Q9NYV4 713-1052) (enzyme)”, the NanoBRET fold increase is 3 to 4 fold in assay [1], 3 to 4 fold in assay [2], above 4 fold in assay [4] and above 4 fold in assay [5]. Also, the EC50 in assay [3] is above 10 µM.
